Biological target: CD6分子 (CD6 on the cell surface) (human) (UniProt P30203)
Experiment: cell-based or functional assay

HUT-78生长抑制率 (CCK-8, 72 h, 100 ng/mL Hum-zap) at T1h 0.8 μM: 11.4%
细胞生长抑制率 of HUT-78 (CCK-8, 72 h, 100 ng/mL Hum-zap) at T1h 8×10-2, 8×10-3 and 8×10-4 μM: > 65%
细胞生长抑制率 of HUT-78 (CCK-8, 72 h, 100 ng/mL Hum-zap) at T1h 8×10-5, 8×10-6, 8×10-7 and 8×10-8 μM: < 10%
Substance: 人源化抗CD6单克隆抗体T1h (Itolizumab) (antibody)

Reference: patent CN102559636A
